Data: article PMC2820462, “Inhibition of receptor tyrosine kinase signalling by small molecule agonist of T-cell protein tyrosine phosphatase” (BMC Cancer, 2010)

Molecular target: T1, T-cell protein tyrosine phosphatase, 45 kDa form (TC45) (UniProt P17706-2 1-387)
T1 sequence (looked up): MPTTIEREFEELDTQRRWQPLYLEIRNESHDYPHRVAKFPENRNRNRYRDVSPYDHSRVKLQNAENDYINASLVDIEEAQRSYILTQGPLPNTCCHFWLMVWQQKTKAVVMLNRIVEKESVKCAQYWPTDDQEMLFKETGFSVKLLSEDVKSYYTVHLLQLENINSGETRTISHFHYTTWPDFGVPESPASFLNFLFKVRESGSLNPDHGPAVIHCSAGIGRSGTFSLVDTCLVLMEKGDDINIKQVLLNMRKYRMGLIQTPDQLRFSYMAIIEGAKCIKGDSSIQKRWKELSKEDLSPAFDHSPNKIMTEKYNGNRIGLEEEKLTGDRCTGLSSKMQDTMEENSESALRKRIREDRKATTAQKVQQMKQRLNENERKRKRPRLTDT
Assay: cell-based or functional assay

In the case of RPLKKKMEK [α1-cyt peptide (α1 cytoplasmic specific sequence lacking the conserved domain, RPLKKKMEK)], the “activation of recombinant TC45 in DiFMUP phosphatase assay by 10 μM α1-cyt peptide” value is reported as 2.4 fold.
